# Laboratory results: patent publication US20120329994A1
# Assays:
# [1] = biological target: WNV DIII (residues 296-404) of the New York 1999 strain, expressed in E. coli and refolded (West Nile virus, New York 1999 strain) (UniProt Q9Q6P4); assay: SPR
# [2] = biological target: WNV E ectodomain (residues 1-404) of the New York 1999 strain, expressed in E. coli and refolded (West Nile virus, New York 1999 strain) (UniProt Q9Q6P4); assay: SPR
Substance,Kd [1] [nM],Kd [2] [nM]
mHu-E16 (humanized E16 monoclonal antibody produced in CHO cells),32,45
"pHu-E16 (plant-produced humanized E16 monoclonal antibody, made in N. benthamiana)",41,46
